Usually Kd stands for the free concentration of one partner at which half of the binding sites on the other are occupied at equilibrium, for simple one-to-one binding. Low readings indicate tighter binding, high ones weaker binding. Usually koff stands for the rate constant with which the complex falls apart. High values mean a short-lived complex, low ones a long-lived complex.

Data on five molecules can be found in paper doi:10.1101/756874 (2019).

B1: MCL-1 (UniProt:Q07820, residues 168–327, C286S) (domain or fragment)
chain: GSEEEEDELYRQSLEIISRYLREQATGAKDTKPMGRSGATSRKALETLRRVGDGVQRNHETAFQGMLRKLDIKNEDDVKSLSRVMIHVFSDGVTNWGRIVTLISFGAFVAKHLKTINQESSIEPLAESITDVLVRTKRDWLVKQRGWDGFVEFFHVEDLEGG
B2: BAK (UniProt:Q16611, residues 16–185, C166S) (domain or fragment)
chain: EPALPSASEEQVAQDTEEVFRSYVFYRHQQEQEAEGVAAPADPEMVTLPLQPSSTMGQVGRQLAIIGDDINRRYDSEFQTMLQHLQPTAENAYEYFTKIATSLFESGINWGRVVALLGFGYRLALHVYQHGLTGFLGQVTRFVVDFMLHHSIARWIAQRGGWVAALNLGN

No end group written: not given here. *: point of attachment. TAMRA = 5-carboxytetramethylrhodamine, CN(C)c1ccc2c(-c3ccc(C(=O)*)cc3C(=O)[O-])c3ccc(=[N+](C)C)cc-3oc2c1

What all share (test): without detergent
For one assay, the target named is BAXBH3.
The target in a further assay is MCL-1BH3.
For assay [1], the target named is B2.
Assay [2] deals with B2. This is another data set of the same source.
In assay [3] the target is B1.
Assay [4] deals with B1. This is another data set of the same source.

In the assay with BAXBH3, B1 displayed a Kd of 0.071 µM and a koff of 0.613 s⁻¹. In the assay with MCL-1BH3, this molecule came in with a Kd of 0.182 µM and a koff of 0.52 s⁻¹.

Consider B2, for which the Kd was determined as 500 µM with BAXBH3 and 5000 µM in the assay with MCL-1BH3.

Turning to {TAMRA}-SESQEDIIRNIARHLAQVGDSMDRSIPPGLVNGLA [BIDBH3, TAMRA-labelled 35-residue peptide (UniProt:P55957, residues 76–110)], the off-rate (koff) in assay [1] is 1400 s⁻¹. The molecule also came in with a Kd in assay [2] of 230 µM.

As for {TAMRA}-RGEEEQWAREIGAQLRRAADDLNAQYERRRQEEQQ [PUMABH3, TAMRA-labelled 35-residue peptide (UniProt: Q9BXH1, residues 127–161, M144A)], the koff in assay [1] came out at 230 s⁻¹; in assay [3], 0.00246 s⁻¹. For the same molecule, the Kd came out at 220 µM in assay [2] and 0.000174 µM in assay [4].

{TAMRA}-ALQPSSTMGQVGRQLAIIGDDINRRYDSEFQTMLQ [BAKBH3, TAMRA-labelled 35-residue peptide (UniProt:Q16611, residues 64–98, P64A)] showed a Kd in assay [2] of 1000 µM.
